# ± gives the standard deviation of the averaged measurements.
# B1: library; a variant is named by its letters at N, in order (parent)
# chain: GCUGUCACCGAGAAACUGUGAAGUAUAUCUUAAACCUGGGCACUUAAAAGAUAUAUGGAGUUAGUAGUGCAACCUGCUCGGUCUGAUGAGUCCNNNNNNGGACGAAACAGC
# Columns and labels:
# cyclic di-GMP [1] = variants of: B1; test: normalized RNA/DNA level without ligand (relative to sTRSVctl = 100) (log10 (% of sTRSVctl)); HEK293T; ligand: cyclic di-GMP (c-di-GMP-II aptamer); higher = less ribozyme self-cleavage, higher mRNA level; details: reporter: mCherry (pCS4076), ligand present: no
# Method in brief: (§1)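 HEK293T cells were transfected with library plasmids carrying ribozyme switches linked to an mCherry reporter, or an eGFP reporter in some ligand experiments, at 4 µg per well of a 6-well plate, with any ligand added 1 h beforehand. After 72 h, total RNA was extracted with EDTA, reverse-transcribed, amplified, barcoded and sequenced. RNA level was defined as RNA reads over DNA reads, normalized to a spiked-in non-cleaving sequence or to the top-ranked sequences. That value was multiplied by 100 and converted to log10, the top set was 25 sequences, and only sequences with ≥100 DNA reads were retained.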
# cyclic di-GMP [2] = variants of: B1; test: normalized RNA/DNA level with ligand (relative to sTRSVctl = 100) (log10 (% of sTRSVctl)); HEK293T; ligand: cyclic di-GMP (c-di-GMP-II aptamer); ligand concentration (+) RNA-Seq: 1 mM; higher = less ribozyme self-cleavage, higher mRNA level; details: reporter: mCherry (pCS4076), ligand present: yes
# Method in brief: as §1
Variant,normalized RNA/DNA level without ligand (log10) (cyclic di-GMP [1]),normalized RNA/DNA level with ligand (log10) (cyclic di-GMP [2])
GCUGUCACCGAGAAACUGUGAAGUAUAUCUUAAACCUGGGCACUUAAAAGAUAUAUGGAGUUAGUAGUGCAACCUGCUCGGUCUGAUGAGUCCCGACCAGGACGAAACAGC,1.667 ± 0.013,1.77 ± 0.12
GCUGUCACCGAGAAACUGUGAAGUAUAUCUUAAACCUGGGCACUUAAAAGAUAUAUGGAGUUAGUAGUGCAACCUGCUCGGUCUGAUGAGUCCGGCUCUGGACGAAACAGC,1.78 ± 0.041,1.92 ± 0.076
GCUGUCACCGAGAAACUGUGAAGUAUAUCUUAAACCUGGGCACUUAAAAGAUAUAUGGAGUUAGUAGUGCAACCUGCUCGGUCUGAUGAGUCCCAAUACGGACGAAACAGC,1.592 ± 0.015,1.73 ± 0.13
GCUGUCACCGAGAAACUGUGAAGUAUAUCUUAAACCUGGGCACUUAAAAGAUAUAUGGAGUUAGUAGUGCAACCUGCUCGGUCUGAUGAGUCCCCCCAAGGACGAAACAGC,1.59 ± 0.018,1.76 ± 0.14
GCUGUCACCGAGAAACUGUGAAGUAUAUCUUAAACCUGGGCACUUAAAAGAUAUAUGGAGUUAGUAGUGCAACCUGCUCGGUCUGAUGAGUCCCGGUUUGGACGAAACAGC,1.6584 ± 0.0015,1.75 ± 0.1
GCUGUCACCGAGAAACUGUGAAGUAUAUCUUAAACCUGGGCACUUAAAAGAUAUAUGGAGUUAGUAGUGCAACCUGCUCGGUCUGAUGAGUCCUAAACCGGACGAAACAGC,1.77 ± 0.027,1.85 ± 0.076
GCUGUCACCGAGAAACUGUGAAGUAUAUCUUAAACCUGGGCACUUAAAAGAUAUAUGGAGUUAGUAGUGCAACCUGCUCGGUCUGAUGAGUCCAUGGCGGGACGAAACAGC,1.69 ± 0.039,1.83 ± 0.053
GCUGUCACCGAGAAACUGUGAAGUAUAUCUUAAACCUGGGCACUUAAAAGAUAUAUGGAGUUAGUAGUGCAACCUGCUCGGUCUGAUGAGUCCUUAGAAGGACGAAACAGC,1.56 ± 0.043,1.73 ± 0.088
GCUGUCACCGAGAAACUGUGAAGUAUAUCUUAAACCUGGGCACUUAAAAGAUAUAUGGAGUUAGUAGUGCAACCUGCUCGGUCUGAUGAGUCCUAGUAAGGACGAAACAGC,1.652 ± 0.0068,1.8 ± 0.12
GCUGUCACCGAGAAACUGUGAAGUAUAUCUUAAACCUGGGCACUUAAAAGAUAUAUGGAGUUAGUAGUGCAACCUGCUCGGUCUGAUGAGUCCUCUGGAGGACGAAACAGC,1.58 ± 0.054,1.79 ± 0.1
GCUGUCACCGAGAAACUGUGAAGUAUAUCUUAAACCUGGGCACUUAAAAGAUAUAUGGAGUUAGUAGUGCAACCUGCUCGGUCUGAUGAGUCCCGGAGAGGACGAAACAGC,1.32 ± 0.11,1.55 ± 0.13
GCUGUCACCGAGAAACUGUGAAGUAUAUCUUAAACCUGGGCACUUAAAAGAUAUAUGGAGUUAGUAGUGCAACCUGCUCGGUCUGAUGAGUCCAGUUCGGGACGAAACAGC,1.69 ± 0.021,1.79 ± 0.11
GCUGUCACCGAGAAACUGUGAAGUAUAUCUUAAACCUGGGCACUUAAAAGAUAUAUGGAGUUAGUAGUGCAACCUGCUCGGUCUGAUGAGUCCAUCCUAGGACGAAACAGC,1.61 ± 0.041,1.78 ± 0.083

# — the supplement of paper PMC6757056
